Test results reported in publication PMC7680425 (Cell chemical biology, 2020).
* marks the point of attachment. CONH‑phenylbutyl = C-terminal alpha-ketoamide warhead with phenylbutyl on the amide nitrogen, O=C(NCCCCc1ccccc1)*; B(OH)2 = C-terminal boronate warhead, OB(O)*

What was measured:
[1] = target: T1, E. coli GlpG consisting of residues 87-276 (ΔN-GlpG) (E. coli, UniProt P09391 87-276); assay: crystal structure
T1 sequence (looked up): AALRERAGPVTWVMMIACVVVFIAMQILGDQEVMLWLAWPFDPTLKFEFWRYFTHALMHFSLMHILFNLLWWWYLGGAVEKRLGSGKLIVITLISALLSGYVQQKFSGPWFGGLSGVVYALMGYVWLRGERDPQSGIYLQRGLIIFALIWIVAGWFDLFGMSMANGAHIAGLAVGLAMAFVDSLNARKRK

[2] = target: P. falciparum rhomboid protease PfROM4 (HA-tagged) (P. falciparum); assay: cell-based or functional assay

| Binder | binding result [1] | EC50 of inhibition of EBA175 cleavage by PfROM4 in HEK293T cells [2] |
| --- | --- | --- |
| Ac-KRFRSMQYSA-{B(OH)2} (SMILES CSCC[C@H](NC(=O)[C@H](CO)NC(=O)[C@H](CCCNC(=N)N)NC(=O)[C@H](Cc1ccccc1)NC(=O)[C@H](CCCNC(=N)N)NC(=O)[C@H](CCCCN)NC(C)=O)C(=O)N[C@@H](CCC(N)=O)C(=O)N[C@@H](Cc1ccc(O)cc1)C(=O)N[C@@H](CO)C(=O)N[C@@H](C)C(=O)B(O)O) [rhomboid-inhibiting boronate (RiBn), Ac-KRFRSMQYSA-B(OH)2] | binds | – |
| Ac-RVWHA-{CONH‑phenylbutyl} [rhomboid-inhibiting ketoamide (RiKa), Ac-RVWHA-CONH-phenylbutyl] | binds | 55 nM |
